Data published in patent publication US20190177416A1 (NANOMAB TECHNOLOGY, published 2019).
Residue numbers refer to the chain shown, from its start.

T1: PD-L2 (coated antigenic protein) (UniProt Q9BQ51 20-220, limits assumed)
T1 sequence (looked up): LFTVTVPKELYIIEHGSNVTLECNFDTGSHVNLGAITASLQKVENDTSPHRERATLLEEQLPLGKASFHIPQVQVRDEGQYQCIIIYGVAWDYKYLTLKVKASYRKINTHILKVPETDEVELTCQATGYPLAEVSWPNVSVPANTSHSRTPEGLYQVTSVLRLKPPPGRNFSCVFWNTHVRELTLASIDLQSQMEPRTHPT

B1: SEQ ID NO 3 (VHH)
VHH: QVQLQESGGGSVQTGGSLRLSCAASTSLYSYNYMAWFSQAPGKGREGVAAVYVGDGRPYYADSVKGRFTISLDSAKNAVYLQMNSLKPEDTAMYYCAAAPGPLSHNYWYTSANYDYWGQGTQVTVSS
notes: pMECS-expressed; also called anti-PD-L1 nanobody No. 3; VHH numbered 3
B2: SEQ ID NO 4 (VHH)
VHH: B1 VHH with T26P, L28I, Y31A, V53I, A78T, S104G
notes: pMECS-expressed; also called anti-PD-L1 nanobody No. 4; VHH numbered 4
B3: SEQ ID NO 7 (VHH)
VHH: B1 VHH with A24C, L28I, Y31T, V53I, A78T, H105R
notes: pMECS-expressed; also called anti-PD-L1 nanobody No. 7; VHH numbered 7
B4: SEQ ID NO 76 (VHH)
VHH: QVQLQESGGGSVQTGGSLRLSCAASTSIYSNNYMAWFRQVPGKGREGVAAVYIDDGRTYYADSVKGRFTISLDSAKNTVYLQMNSLKPEDTAMYYCAAAPGPLSRHYWYTSANYDYWGPGTQVTVSS
notes: pMECS-expressed; also called VHH numbered 76
B5: SEQ ID NO 77 (VHH)
VHH: B4 VHH with A23T, R38S, V40A, T58P, H106N, P119Q
notes: pMECS-expressed; also called VHH numbered 77
B6: SEQ ID NO 78 (VHH)
VHH: B1 VHH with A78T
notes: pMECS-expressed; also called VHH numbered 78
B7: SEQ ID NO 80 (VHH)
VHH: B4 VHH with A23V, R38S, V40A, T58P, H106S, P119Q
notes: pMECS-expressed; also called VHH numbered 80
B8: SEQ ID NO 81 (VHH)
VHH: B4 VHH with R38S, V40A, H106N, P119Q
notes: pMECS-expressed; also called VHH numbered 81
B9: SEQ ID NO 82 (VHH)
VHH: B4 VHH with A23T, R38S, V40A, T58P, H106N, P119Q
notes: pMECS-expressed; also called VHH numbered 82
B10: SEQ ID NO 83 (VHH)
VHH: B1 VHH with S11L, L28I, Y31N, M34L, V53I, T69P, D73N, K76Q, A78K, H105R
notes: pMECS-expressed; also called VHH numbered 83
B11: SEQ ID NO 84 (VHH)
VHH: B4 VHH with Y29D, V40A, T58P
notes: pMECS-expressed; also called VHH numbered 84
B12: SEQ ID NO 85 (VHH)
VHH: B4 VHH with R38S, V40A, D54A, G56D, T58P, H106N, P119Q
notes: pMECS-expressed; also called VHH numbered 85
B13: SEQ ID NO 86 (VHH)
VHH: B1 VHH with E6D, L28I, Y31I, V53T, A78T, H105R
notes: pMECS-expressed; also called VHH numbered 86
B14: SEQ ID NO 10 (VHH)
VHH: QVQLQESGGGSVQAGGSLRLSCTAPGFTSKTCAMRWYRQAPGKEREFVSAISTVGTTTYADSVKGRFIISKDEAKDTVYLQINSLKPEDTAMYSCKTFACRHCIGQSCRTEPDYWGQGTQVTVSS
notes: pMECS-expressed; also called anti-PD-L1 nanobody No. 10; VHH numbered 10
B15: SEQ ID NO 6 (VHH)
VHH: QVQLQESGGGSVQAGETLRLSCTASGDTFDASGVGWFRQVSGNECDLVSSINRDGTTYYAPSVAGRFTMSQNNAKNTVYLQMNSLKPDDTAVYYCATDPAVGIVVRSTCRGPFGYWGQGTQVTVSS
notes: pMECS-expressed; also called anti-PD-L1 nanobody No. 6; VHH numbered 6
B16: SEQ ID NO 18 (VHH)
VHH: QVQLQESGGGSVQAGGSLRLSCAASGYTYSSDGMGWFRQTPGKEREGVAAISPTGRRTEYADSVKGRFTISRDNNKNMLSLQMNSLKPEDTGMYYCAREGSWSFSLANSAVRSWGQGTQVTVSS
notes: pMECS-expressed; also called VHH numbered 18
B17: SEQ ID NO 20 (VHH)
VHH: QVQLQESGGGLVQPGGSLRLSCAASGFTGSIYAMSWVRQAPGKGLEWVSTISSSGGRRFYADSVKGRFTISRDNAKNTLYLQLNSLKTEDTAMYYCARCSDIYCDNGASYRGQGTQVTVSS
notes: pMECS-expressed; also called VHH numbered 20
B18: SEQ ID NO 45 (VHH)
VHH: B17 VHH with G29F, Y32K, S52D, S54G, F59Y, N84S, Y95F, D105Y
notes: pMECS-expressed; also called VHH numbered 45
B19: SEQ ID NO 58 (VHH)
VHH: B17 VHH with A24L, G29S, S30T, S52N, S54D, R57Y, F59Y, L86P, D105Y, A108P
notes: pMECS-expressed; also called VHH numbered 58
B20: SEQ ID NO 61 (VHH)
VHH: QVQLQESGGGLVQPGGSLRLSCAASGFDFSSRAMSWVRQAPGKGLEWVSTINSGGGSRYYADSVKGRFTTSRDNAKNTLALQLNSLKTEDTAMYYCARCSDIYCDNGAWYRGQGTQVTVSS
notes: pMECS-expressed; also called VHH numbered 61
B21: SEQ ID NO 70 (VHH)
VHH: B20 VHH with D28T, S31I, G56D, T70I, L79M, A80Y, A97V, D105Y, W109S
notes: pMECS-expressed; also called VHH numbered 70
B22: SEQ ID NO 74 (VHH)
VHH: B17 VHH with L11S, P14A
notes: pMECS-expressed; also called VHH numbered 74
B23: SEQ ID NO 50 (VHH)
VHH: QVQLQESGGGLVQPGGSLRLSCIASGFTFSIMAMSWVRQAPGKGLEWVSTINSDGGKTYYADSVKGRFTISRDNAKNTLYLQLNSLRTEDMAMYYCRRCADIYCSGSGGWTGQGTQVTVSS
notes: pMECS-expressed; also called VHH numbered 50
B24: SEQ ID NO 65 (VHH)
VHH: B23 VHH with I23A, M32L, V48I, S53N, D54S, K57T, Y59F, M91T, A100T, G106L
notes: pMECS-expressed; also called VHH numbered 65
B25: SEQ ID NO 72 (VHH)
VHH: B23 VHH with I23E, F27L, T28P, M32I, K57T, Y59H, M91T, A100T
notes: pMECS-expressed; also called VHH numbered 72
B26: SEQ ID NO 73 (VHH)
VHH: B23 VHH with I23E, F27L, T28P, M32I, K57T, Y59H, M91T, A100T, S107F
notes: pMECS-expressed; also called VHH numbered 73
B27: SEQ ID NO 79 (VHH)
VHH: QVQLQESGGGLVQPGGSLRLSCAASGLPFSIIAMSWVRQAPGKGIEWVSTINSGGGTTHYADSVKGRFTISRDNAKNTLYLQLNSLRTEDTAVYYCRRCADIYCSGSGGWTGLGTQVTVSS
notes: pMECS-expressed; also called VHH numbered 79
B28: SEQ ID NO 34 (VHH)
VHH: QVQLQESGGGSVQAGGSLRLSCAASGYTRSLYCMGWFRQAPGREREGVAHVYTGDGSPYYADSVKGRFTISQDNGESTLYLQMNNLKPEDTAMYYCAAGTSALSRPYGPISYGYWYWGQGTQVTVSS
notes: pMECS-expressed; also called VHH numbered 34
B29: SEQ ID NO 71 (VHH)
VHH: QVQLQESGGGLVQPGGSLRLSCAASGFTFSSYDMSWVRQAPGKGIEWVSVINSGGSNTDYADSVKGRFTISRDNAKNTLYLQMNSLKTEDTAVYYCATAWMGYSDYLDGIARGQGTQVTVSS
notes: pMECS-expressed; also called VHH numbered 71

What was measured:
[1] = molecular target: T2, human PD-L1 protein (coated antigen) (human, UniProt Q9NZQ7 19-238, limits assumed); test: ELISA, purified nanobody 10 ug/mL on coated PD-L1, anti-HA detection
T2 construct: Construct not described; also called PD-L1 antigen; antigenic protein PD-L1
Protocol: (§1) (1) Coated antigenic proteins PD-L1 and PD-L2: 0.5 μg per well (5 μg/mL, 100 μL), packaged NaHCO₃ (100 mM, pH8.2) was used as a blank control and overnight at 4° C. (2) Wash the cells three times with PBST the next day, add 200 μL of 1% BSA to block at room temperature for 2 hours. (3) Each purified nanobody was diluted to 10 μg/mL, and 100 pt of each of the purified nanobodies was incubated with the coated PD-L1, PD-L2 and the blank control group, and reacted at room temperature for 1 hour. (4) Unbound antibody was washed away with PBST, and 100 μL of mouse anti-HA tag antibody (1:2000 dilution) was added and placed at room temperature for 1 hour. (5) Unbound antibody was washed away with PBST, and anti-mouse alkaline phosphatase conjugate (1:2000 dilution) was added and placed at room temperature for 1 hour. (6) Wash the unbound antibody with PBST, add alkaline phosphatase coloring solution, and read the absorbance at 405 nm on an ELISA apparatus. The specificity of the nanobody was judged based on the absorption value.

[2] = molecular target: T2, human PD-L1 protein (coated antigen); test: ELISA, purified nanobody 10 ug/mL, coated PD-L1 against coated PD-L2
Protocol: as §1

[3] = molecular target: T2, human PD-L1 protein (coated antigen); test: PE-ELISA, crude extract on coated PD-L1
Protocol: (1) From the cell culture dishes containing phage after 3-4 rounds of screening in Example 2, 1000 individual colonies were selected and inoculated into TB medium containing 100 μg/ml of ampicillin (1 liter of TB medium contains 2.3 g of potassium dihydrogen phosphate, 12.52 g of dipotassium hydrogen phosphate, 12 g of peptone, 24 g of yeast extract, 4 ml of glycerol), after growth to log phase, add a final concentration of […] of IPTG, culture at 28° C. overnight. (2) The crude antibody was obtained by the infiltration method, and the antibody was transferred to an antigen-coated ELISA plate and placed at room temperature for 1 hour. (3) Unbound antibody was washed away with PBST, and a mouse anti-HA tag antibody (anti-mouse anti-HA antibody, purchased from Beijing Kangwei Century Biotechnology Co., Ltd.) was added and placed at room temperature for 1 hour. (4) Unbound antibody was washed away with PBST, and anti-mouse alkaline phosphatase conjugate (goat anti-mouse alkaline phosphatase-labeled antibody, purchased from Amytech Co., Ltd.) was added and placed at room temperature for 1 hour. (5) Wash the unbound antibody with PBST, add alkaline phosphatase coloring solution, and read the absorbance at 405 nm on an ELISA apparatus. (6) When the OD value of the sample well is more than 3 times the OD value of the control well (Ratio+/−>3), it is judged as a positive clone hole. (7) The bacteria of the positive clone well were shaken in a LB liquid containing 100 μg per ml to extract a plasmid and perform sequencing.

[4] = molecular target: T1, PD-L2 (coated antigenic protein); test: ELISA, purified nanobody 10 ug/mL on coated PD-L2, anti-HA detection
Protocol: as §1

T2 sequence (Q9NZQ7 19-238 limits assumed): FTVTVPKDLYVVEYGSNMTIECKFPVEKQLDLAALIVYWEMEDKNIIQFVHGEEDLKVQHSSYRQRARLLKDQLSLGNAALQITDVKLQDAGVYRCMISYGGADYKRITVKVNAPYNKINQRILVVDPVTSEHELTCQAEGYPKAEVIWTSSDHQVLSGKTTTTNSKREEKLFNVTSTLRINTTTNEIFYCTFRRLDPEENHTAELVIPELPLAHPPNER

Binder	ELISA absorbance (A405 nm) [1] [A405 nm]	OD ratio (PD-L1/PD-L2) [2]	OD ratio (experimental group (A405 nm)/control group (A405 nm)) [3]	ELISA absorbance (A405 nm) [4] [A405 nm]
B1	2.36	21	> 20	0.112
B2	3.51	25.6	> 20	0.137
B3	3.51	29.5	> 20	0.119
B4			> 20	
B5			> 20	
B6			> 20	
B7			> 20	
B8			> 20	
B9			> 20	
B10			> 20	
B11			> 20	
B12			> 20	
B13			> 20	
B14	3.34	28.6	> 20	0.117
B15	3.44	29.9	> 20	0.115
B16			> 20	
B17			> 20	
B18			> 20	
B19			> 20	
B20			> 20	
B21			> 20	
B22			> 20	
B23			> 20	
B24			> 20	
B25			> 20	
B26			> 20	
B27			> 20	
B28			> 20	
B29			> 20	
